Target: Growth Factor Receptor-bound 2 (GRB2), endogenous in HEK cells (human (endogenous in HEK), UniProt P62993 1-217)
Experiment: co-IP

Growth Factor Receptor-bound 2 (GRB2), endogenous in HEK cells, sequence (P62993 whole entry): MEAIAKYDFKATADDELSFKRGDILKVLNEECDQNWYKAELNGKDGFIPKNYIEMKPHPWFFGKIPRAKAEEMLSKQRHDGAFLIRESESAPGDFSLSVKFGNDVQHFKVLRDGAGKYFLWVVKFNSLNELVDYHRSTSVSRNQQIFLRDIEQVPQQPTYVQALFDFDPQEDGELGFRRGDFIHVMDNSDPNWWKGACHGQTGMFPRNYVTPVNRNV

B1: wild-type SWELL1 (SWELL1^WT), transiently expressed in HEK cells (natural protein, UniProt Q8IWT6 1-810, looked up)
chain: MIPVTELRYFADTQPAYRILKPWWDVFTDYISIVMLMIAVFGGTLQVTQDKMICLPCKWVTKDSCNDSFRGWAAPGPEPTYPNSTILPTPDTGPTGIKYDLDRHQYNYVDAVCYENRLHWFAKYFPYLVLLHTLIFLACSNFWFKFPRTSSKLEHFVSILLKCFDSPWTTRALSETVVEESDPKPAFSKMNGSMDKKSSTVSEDVEATVPMLQRTKSRIEQGIVDRSETGVLDKKEGEQAKALFEKVKKFRTHVEEGDIVYRLYMRQTIIKVIKFILIICYTVYYVHNIKFDVDCTVDIESLTGYRTYRCAHPLATLFKILASFYISLVIFYGLICMYTLWWMLRRSLKKYSFESIREESSYSDIPDVKNDFAFMLHLIDQYDPLYSKRFAVFLSEVSENKLRQLNLNNEWTLDKLRQRLTKNAQDKLELHLFMLSGIPDTVFDLVELEVLKLELIPDVTIPPSIAQLTGLKELWLYHTAAKIEAPALAFLRENLRALHIKFTDIKEIPLWIYSLKTLEELHLTGNLSAENNRYIVIDGLRELKRLKVLRLKSNLSKLPQVVTDVGVHLQKLSINNEGTKLIVLNSLKKMANLTELELIRCDLERIPHSIFSLHNLQEIDLKDNNLKTIEEIISFQHLHRLTCLKLWYNHIAYIPIQIGNLTNLERLYLNRNKIEKIPTQLFYCRKLRYLDLSHNNLTFLPADIGLLQNLQNLAITANRIETLPPELFQCRKLRALHLGNNVLQSLPSRVGELTNLTQIELRGNRLECLPVELGECPLLKRSGLVVEEDLFNTLPPEVKERLWRADKEQA
  densitometry ratio SWELL1/GRB2 in the GRB2 immunoprecipitate: 0.31
